# Data as given in publication PMC5829230, “G-protein βγ subunits determine grain size through interaction with MADS-domain transcription factors in rice”.
# B1: MADS55-EMSA-probe (dsDNA)
# DNA 1: AGGCAGTATCTATCTATTTATTGCGTATAAACTAAAT
# DNA 2: ATTTAGTTTATACGCAATAAATAGATAGATACTGCCT
# Biological target: GST-OsMADS1 (Oryza sativa, UniProt Q10PZ9 1-257)
# Test: EMSA; 10x and 50x unlabeled probe as competitor; LightShift Chemiluminescent EMSA Kit (Thermo 20148); buffer, salt, pH and temperature not stated
# Settings: protein: recombinant; tags: N-terminal GST (pGEX-4T-1); chain copies: 2; label: biotin; blunt
# Chain of GST-OsMADS1 (Q10PZ9 whole entry): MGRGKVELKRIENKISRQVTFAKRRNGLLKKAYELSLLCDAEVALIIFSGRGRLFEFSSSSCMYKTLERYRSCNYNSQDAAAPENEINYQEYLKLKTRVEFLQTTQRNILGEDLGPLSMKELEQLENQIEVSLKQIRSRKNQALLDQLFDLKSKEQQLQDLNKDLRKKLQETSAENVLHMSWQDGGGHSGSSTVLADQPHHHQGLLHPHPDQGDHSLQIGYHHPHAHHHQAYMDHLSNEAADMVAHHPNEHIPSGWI
binder,measurement,value
B1,binding result,binds
